Target: arhg7_human ARHGEF7 (UniProt Q14155)

Ras-related C3 botulinum toxin substrate 1 (Homo sapiens) (from UniProt P63000-1) G15A
effect of a mutation on the interaction: increasing interaction strength

From IntAct's records for PubMed 25150978
